B1: murine anti-TG TCR (TCR, V domains shown)
Valpha: GEQVEQRPPHLSVREGDSAVIICTYTDPNSYYFFWYKQEPGAGLQLLMKVFSSTEINEGQGFTVLLNKKDKQLSLNLTAAHPGDSAVYFCAVSSSGSWQLIFGSGTQLTVMP
Vbeta: NSKVIQTPRYLVKGQGQKAKMRCIPEKGHPVVFWYQQNKNNEFKFLINFQNQEVLQQIDMTEKRFSAECPSNSPCSLEIQSSEAGDSALYLCASLGGSQDTQYFGPGTRLLVL
B2: human anti-TG TCR (TCR, V domains shown)
Valpha: RKEVEQDPGPFNVPEGATVAFNCTYSNSASQSFFWYRQDCRKEPKLLMSVYSSGNEDGRFTAQLNRASQYISLLIRDSKLSDSATYLCVVHSSNTGKLIFGQGTTLQVKP
Vbeta: NAGVTQTPKFQVLKTGQSMTLQCAQDMNHEYMSWYRQDPGMGLRLIHYSVGAGITDQGEVPNGYNVSRSTTEDFPLRLLSAAPSQTSVYFCASSYSLTSGGALVSYEQYFGPGTRLTVT

How the values were obtained:
[1] = molecular target: T1, human thyroglobulin (TG) peptide on HLA-A*02:01 (human); experiment: cytokine release
T1 peptide: NLFGGKFLV
Protocol: (§1) Interferon (IFN)-γ release by transduced PBL was determined as previously described in Wang et al., J. Immunol. Methods, 366(1-2): 43-51 (2011). Briefly, retrovirally-transduced cells (1×10⁵) were co-cultured with 5×10⁴ target cells (XTC, XTC/A2, Cos A2, or Cos A2 transfected with TG) or control tumor cell lines for 18-22 hrs in RPMI with 10% FBS at 37° C., 5% CO₂. On the subsequent day, IFN-γ secretion was determined by enzyme-linked immunosorbent assay (ELISA).

[2] = molecular target: T2, human thyroglobulin (TG) peptide on HLA-A*02:01 (human); experiment: cytokine release
T2 peptide: LVLEIFTLL
Protocol: as §1

Row | Binder | binding result [1] | binding result [2]
1 | B1 | recognises | –
2 | B2 | – | recognises

— patent US20180244768A1 (published 2018)
